Positions count from the first letter of the chain named. Blank lines part the entries; values can stand above or below the binder they belong to.
Tests used:
recombinant FVIII = molecular target: T1, recombinant FVIII (human, UniProt P00451 20-2351); assay: SPR (BIAcore), antibody immobilised on CM5 chip, FVIII infused
T1 chain: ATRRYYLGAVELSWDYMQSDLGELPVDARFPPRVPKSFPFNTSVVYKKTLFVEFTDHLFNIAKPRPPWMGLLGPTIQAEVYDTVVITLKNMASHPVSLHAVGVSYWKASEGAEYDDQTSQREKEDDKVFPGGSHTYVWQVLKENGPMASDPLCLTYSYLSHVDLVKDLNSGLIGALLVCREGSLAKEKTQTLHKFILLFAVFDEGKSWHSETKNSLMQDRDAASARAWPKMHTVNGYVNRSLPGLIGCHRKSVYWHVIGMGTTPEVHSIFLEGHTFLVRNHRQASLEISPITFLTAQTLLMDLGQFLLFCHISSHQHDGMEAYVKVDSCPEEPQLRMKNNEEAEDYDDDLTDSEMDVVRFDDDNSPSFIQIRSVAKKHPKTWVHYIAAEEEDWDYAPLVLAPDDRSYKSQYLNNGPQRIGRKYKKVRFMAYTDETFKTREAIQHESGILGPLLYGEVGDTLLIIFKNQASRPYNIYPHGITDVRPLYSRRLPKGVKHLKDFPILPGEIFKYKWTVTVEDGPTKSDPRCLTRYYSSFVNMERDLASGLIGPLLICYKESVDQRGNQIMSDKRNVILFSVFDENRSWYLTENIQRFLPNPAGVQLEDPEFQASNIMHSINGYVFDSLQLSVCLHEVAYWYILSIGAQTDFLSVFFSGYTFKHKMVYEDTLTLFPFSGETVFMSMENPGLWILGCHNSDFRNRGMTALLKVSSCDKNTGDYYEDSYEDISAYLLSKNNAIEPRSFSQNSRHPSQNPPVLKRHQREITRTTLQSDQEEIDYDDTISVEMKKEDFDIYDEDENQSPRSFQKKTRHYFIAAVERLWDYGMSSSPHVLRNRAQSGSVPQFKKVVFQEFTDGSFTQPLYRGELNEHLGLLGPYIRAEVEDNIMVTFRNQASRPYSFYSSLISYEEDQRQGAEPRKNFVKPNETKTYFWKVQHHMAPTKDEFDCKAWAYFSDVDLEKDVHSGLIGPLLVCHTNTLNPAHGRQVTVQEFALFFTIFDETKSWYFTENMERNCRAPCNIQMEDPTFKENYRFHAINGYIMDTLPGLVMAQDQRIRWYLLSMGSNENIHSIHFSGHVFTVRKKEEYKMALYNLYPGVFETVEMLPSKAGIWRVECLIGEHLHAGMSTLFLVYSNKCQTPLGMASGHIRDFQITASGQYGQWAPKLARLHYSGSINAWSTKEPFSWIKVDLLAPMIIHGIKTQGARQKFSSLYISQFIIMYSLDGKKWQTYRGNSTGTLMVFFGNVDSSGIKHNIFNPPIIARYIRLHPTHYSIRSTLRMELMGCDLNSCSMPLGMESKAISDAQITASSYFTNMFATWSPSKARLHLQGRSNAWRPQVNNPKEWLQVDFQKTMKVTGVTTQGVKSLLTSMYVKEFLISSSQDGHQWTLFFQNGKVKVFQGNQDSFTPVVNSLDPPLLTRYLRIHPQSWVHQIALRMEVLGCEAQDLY

[1] = molecular target: Factor VIII in a pool of normal human plasma (human), P00451; assay: cell-based or functional assay
[2] = molecular target: recombinant FVIII (human), P00451; assay: cell-based or functional assay

B1: CHO-recKRIX-1 (recombinant Krix-1 produced in CHO cells) (antibody, V domains shown)
VH: QVQLVQSGAEVKKPGASVKVSCKTSGYNFTGYSASGHIFTAYSVHWVRQAPGQGLEWMGRINPNSGATDYAHKFQGRVTMSRDTSISTAYMELSRLTSDDTAMYYCARADNYFDIVTGYTSHYFDYWGRGTLVTVSS
VL: EIVLTQSPGTLSLSPGERATLSCRASQSVASAYLAWYQQKPGQAPRLLIYGASSRATDIPHRFSGSGSGTDFTLTISRLEPEDFAVYYCQQYGTSALLTFGGGTKVEIKR
modifications: N-linked glycosylation site at Asn47-Thr49, glycosylated as produced by CHO cells
notes: also called native CHO-rec-KRIX-1; rec-mAb Krix-1
- Kd (recombinant FVIII): 0.14 nM

B3: CHO-recKRIX-1A (Krix-1 with Thr49 changed to Ala in the heavy chain, produced in CHO cells) (antibody, IgG4, V domains shown)
VH: B1 VH with T30A
VL: B1 VL
notes: IgG4 kappa; The mutation disrupts the N-linked glycosylation site at Asn47-Thr49
- Kd (recombinant FVIII): 0.13 nM

B7: CHO-recKRIX-1 (recombinant Krix-1 produced in CHO cells) (antibody, V domains shown)
VH: QVQLVQSGAEVKKPGASVKVSCKTSGYNFTGYSASGHIFTAYSVHWVRQAPGQGLEWMGRINPNSGATDYAHKFQGRVTMSRDTSISTAYMELSRLTSDDTAMYYCARADNYFDIVTGYTSHYFDYWGRGTLVTVSSASTKGPSVF
VL: EIVLTQSPGTLSLSPGERATLSCRASQSVASAYLAWYQQKPGQAPRLLIYGASSRATDIPHRFSGSGSGTDFTLTISRLEPEDFAVYYCQQYGTSALLTFGGGTKVEIKRTVAAPSVFIFPPS
modifications: here or on the partner: N-linked glycosylation site at Asn47-Thr49, glycosylated as produced by CHO cells
- maximal inhibition of FVIII activity in large excess of antibody (chromogenic assay) [1]: 75 to 85%

Other lines, results leading:

- Kd (recombinant FVIII): 0.17 nM
B2: CHO-recKRIX-1Q (Krix-1 with Asn47 changed to Gln in the heavy chain, produced in CHO cells) (antibody, IgG4, V domains shown)
VH: B1 VH with N28Q
VL: B1 VL
notes: IgG4 kappa; The mutation disrupts the N-linked glycosylation site at Asn47-Thr49; also called Asn47Gln Krix-1; rec-mAb-KRIX-1Q

- inhibition of FVIII activity at a final concentration of RHD5 of 100 microgram/ml (plasma) [1]: 97%
- inhibition of FVIII activity at a final concentration of RHD5 of 100 microgram/ml (full length recombinant FVIII) [2]: 98%
B4: RHD5 (human monoclonal antibody from the lymphoblastoid cell line RHD5) (antibody, V domains shown)
VH: QVQLVQSGAEVKKPGSSVMVSCKASGGTFSSFGISWVRQAPGQGLEWVGGIIPIFGTANTARNFQNRVTITADEFTSTAYIRLRSLRSEDTAVYYCVGGRDAYSFDGFDVWGQGTMVTVSSASTKGPSVFP
VL: SSGLTQPHSVSVSPGQTANITCSRDKLGHKFASWYQQKPGQSPALLIYQDSKRPSGIPERFSGSNSGNTATLTISGTQAMDEADYYCQAWDNTTAVFGGGTKLTVLSQPKAAPSVTLFPPS

- inhibition of FVIII activity in plasma (Bethesda assay, chromogenic FVIII assay) [1]: 90%
- inhibition of FVIII activity in plasma (chromogenic assay) [1]: 90%
B5: Krix-1 (human monoclonal antibody KRIX-1 produced in a lymphoblastoid cell line) (antibody, V domains shown)
VH: B7 VH
VL: B7 VL
modifications: here or on the partner: N-linked glycosylation site at Asn47-Thr49, glycosylated as produced by the human lymphoblastoid cell line

- inhibition of FVIII activity in plasma (chromogenic assay) [1]: 50%
- maximal inhibition (plateau inhibition) of FVIII activity in plasma (Bethesda assay, chromogenic FVIII assay) [1]: 50%
B6: deglycosylated KRIX-1 (KRIX-1 treated with N-glycosidase-F) (antibody, IgG4, V domains shown)
VH: B7 VH
VL: B7 VL
modifications: here or on the partner: N-linked glycans removed by N-glycosidase-F (2 U/ml, 37 C, 72 h)

From patent US20060292149A1 (LIFE SCIENCES RESEARCH PARTNERS, published 2006)
